The DeepSol protein solubility set

Assay: soluble on expression in E. coli; label from the status in PepcDB or PDB records

| Sequence | soluble on expression in E. coli |
| --- | --- |
| MSLKTITFFKRVLASAALVSVCGFACATNNGKQFIHNDTMEGGKLVCREIYAMNDAASGILNPVKMYKYSYDTDQQKTVKSTYAWNIFKNTWETESRTVISRYETETSVEYSVWNKEKGSFDLSKKYIYITDNNNQLIAQYAYKMNSRTNQWILEKDALTPIYENIYATTREGHHHHHH | soluble |
| GAMADDAAIQQTLAKMGIKSSDIQPAPVAGMKTVLTNSGVLYITDDGKHIIQGPMYDVSGTAPVNVTNKMLLKQLNALEKEMIVYKAPQEKHVITVFTDITCGYSHKLHEQMADYNALGITVRYLAFPRQGLDSDAEKEMKAIWCAKDKNKAFDDVMAGKSVAPASCDVDIADHYALGVQLGVSGTPAVVLSNGTLVPGYQPPKEMKEFLDEHQKMTSGK | soluble |
| MGSDKIHHHHHHMTDVTQGRIPHAVYIDPGLPEYRDNPLIASLPPIFDTKQVITKLRLKPLYDSAERNLDGRLRVHAIARLLNRFFQPLSHHLELEQKISLILRQGYLGRNPEQGSYHLHLQNGFKRIQEEDLDAFVFDQARSSANSLSLFGCSGCGKSVTINRILSVYEQAIFHPEHNITQLTYLKIECPVDGDLDELCLSFFNEVDRVLHTQYSTSHGRKKLGTKRLMASMCQIANLHALGVLIIDEVQNLNEAKSGGAEKMHNFFVSLVNTIGVPVIQVGTHRARKFFQRTFRAARRITGFGSLLWDRLPNDHQWRQLLKLLWQYQWLRSAEPINDELVGTMYDLTQGVMDIVVKLYVLAQVRAIVTGMERITSELLKQVYHDEFKPVHPMLAALRSNNPGLLEQYDDLLMPEIEARMLSMVSSLEQADTYVDRPEISTDKSKKLLVLLSQMDIPEDIAIPLVDRVISRHPELSVAALMHKVTEYTADVTAEPPKINRIKRTQWLELPTNDLRYLYASSDKNNVYQLFKNQGLIYDLKSVSNRTG | not soluble |
| MAGHSKWAQIKRKKAANDLKRGKLISKHLRAIQAAARAGGSPYPEANVQLRNAIEAARADDVPMENIERLLQKLQGGGEGAEQYEEIVYEGYAPGGVALLVYALTDNRNRTASEVRHVFSKHGGSLGTTGSVAWQFERRGVVVCENTEAAQEAAIELGALDLEEEGENLTVYTEPTEAYRIAEALKAKGVRVEAVEVVQHPQNTVALPPEEAQKVMRLVEALEDLDDVQHVYTNLDPESLQVEA | soluble |
| MVNRFREKLKPDQYLCRIEGTQFVLVSLENDVSNITQIADELRNVVSKPIMIDDNPFPLTLSIGISYDVGKNRDYLLSTAHNAMDYIRKNGGNGWQFFSPAMNEMVKERLVLGAALKEAISNNQLKLVYQPQIFAETGELYGIEALARWHDPQHGHVPPSRFIPLAEEIGEIENIGRWVIAEACRQLAEWRSQNIHIPALSVNLSALHFRSNQLPNQVSDAMQAWGIDGHQLTVEITESMMMEHDTEIFKRIQILRDMGVGLSVDDFGTGFSGLSRLVSLPVTEIKIDKSFVDRCLTEKRILALLEAITSIGQSLNLTVVAEGVETKEQFEMLRKIHCRVIQGYFFSRPLPAEEIPGWMSSVLPLKI | not soluble |
| MATAADSVYSIESPKAAKSLMLDVVHAGKRLVAVGDRGHILYSDDQGQTWVQAKVPTRQLLTAVYFVDDKRGWAVGHDAQVLASSDGGATWTRQFQDLKREAPLLDVWFKDTQTGYAVGAYGALLETSDGGQHWEDVSDRLDNEDQFHLNAIAQVKDSGLFIVGEQGSMFRSADDGQTWERLEGPYEGSLFGVIGTGQPATLLVYGLRGNLYRSTDFGSTWEQVELNAARGALEFGLSGATLLDDGSLVIVGNGGSVIRSTDHGQTFSVFNRADRISLSAVTAAGNGDLILAGQGGVRVSAATGAELGQLEHHHHHH | not soluble |
| MAPLLHQVSNYGYGKCVTVRFCDGKTYDAKDGESRAINRDLNVGAVKIYRDSKDEDQAYVLNYFPYNLELNDNRGKNKGLQGYRVLIWKQYGTINLDVFYDEMKIWCKTNDLGIYTSDGELKYYKSVIARHREEGGISVIGFETAEGATTAAAKKEEDENEEASAKVKEANEEESTNA | soluble |
| MKTTEFTMPEITISYKDNVKASERVKILSSETSYTYLKPFYAECMEHHEESYVMFLNRANKALGISLISKGGMAETVMDVKIILQTALKVHASGIVLSHNHPSGNLRPSEPDKKITTKINEACKVLDLHLLDHIILTEESYYSFADEGLL | not soluble |
| MGSDKIHHHHHHMQKPHLLITSAGRRAKLVEYFVKEFKTGRVSTADCSPLASALYMADQHYIVPKIDEVEYIDHLLTLCQDEGVTALLTLIDPELGLLAQATERFQAIGVTVIVSPYAACELCFDKYTMYEYCLRQGIAHARTYATMASFEEALAAGEVQLPVFVKPRNGSASIEVRRVETVEEVEQLFSKNTDLIVQELLVGQELGVDAYVDLISGKVTSIFIKEKLTMRAGETDKSRSVLRDDVFELVEHVLDGSGLVGPLDFDLFDVAGTLYLSEINPRFGGGYPHAYECGVNFPAQLYRNLMHEINVPQIGQYLDDIYMLKHDTVTLISAAELQKIKR | not soluble |
| MPALSGGDGVIRFQQVSKAYRGGRQALQKVDFHLRRGEMAFLGGHSGAGKSTLLKLICAIERPTDGKISFNGHDITRIPNKDIPFLRRNIGIVFQDHRLLMDRSIYDNVALPMRIESISENEIKRRVSAALDKTGLLDKARCLPSQLSGGEQQRVGIARAVVNRPTLLLADEPTGNLDPELSSRVLRLFEEFNRAGVTILLATHDIHLVNSRPQYRHLELNQGFLSEVADYGR | not soluble |
| MGSDKIHHHHHHMTASLLTFAKGGVHPPESKEITEHLAIEKMPLPAQVEIPLLQHFGAPCQPLVNKKDRVEEGDLIGQVQGLGANVHASITGTVTNVGTSIGPTSLNIPSVTIDRDTEAPDKIYTPSDWRGLSPQELLQKIKDGGIVGIGGAGFPAHVKLSPPPDAKVDTLVLNGAECEPYLTCDHRVMLEKPEEVVEGAKILLHVLGIKDCYIGVESNKNDAIDALRKTIEQQKLDGVKIQVSPLKVKYPQGSEKQLIESTTGRKVPGGGLPFDVGVIVQNVGTAKAVFDAVVLNKPLYEKVITISGRGISRPANLQVRIGTRIRDIVEYLGGTKADLAKIVMGGPMMGFAVSSLDIPVTKTCSGILFLTRDEIDEQPYGPCIRCGWCVEACPMGLSPNEIGLYVEAGRAADTAPFGVFDCFECGSCAFVCPAKRPLVQFIRLAKQKARK | not soluble |
| AIPAPTDLKFTQVTPTSLSAQWTPPNVQLTGYRVRVTPKEKTGPMKEINLAPDSSSVVVSGLMVATKYEVSVYALKDTLTSRPAQGVVTTLENVSPPRRARVTDATETTITISWRTKTETITGFQVDAVPANGQTPIQRTIKPDVRSYTITGLQPGTDYKIYLYTLNDNARSSPVVIDASTAIDAPSNLRFLATTPNSLLVSWQPPRARITGYIIKYEKPGSPPREVVPRPRPGVTEATITGLEPGTEYTIYVIALKNNQKSEPLIGRKKT | soluble |
| MSEMGKYKPPAERKYGKGVQSCQRCGSKDSVIQKYGIYLCRQCFREVAYELGFRKYW | soluble |
| MGSDKIHHHHHHMLQTINLTQRYATKKLFENVNIKLDKNKRYGLIGANGAGKSTFLKILSKSIDCSSGEVIITSGMKMGVLGQDQYAFEDLSLKDAVLIGNKRLYDAIKEKERLYTEGDLSDDKVNARLGELETICVEEDPMYECEVAIEKILEDLGIPSSKHNDLMKTLPSSDKFKILLAQVLFPKPDILLLDEPTNNLDLNAIEWLENNLKRHEGTMVVISHDRHFLNAVCTHILDLDFHSVREFSGNYDDWYIASTLIAKQQEAERNKKLKEKEELEKFIARFSANASKAKQATSRQKQLDKLDIQSLAVSSRRDPSIIFKPKRTIGNEALECENISKSYDDQIVLNQVSLKVMPKDKIALIGPNGVGKSTLCKILVEELKPDKGVVKWGATVSKGYFPQNVSEEISGEETLYQWLFNFNKKIESAEVRNALGRMLFNGEEQEKCVNALSGGEKHRMVLSKLMLEGGNFLVLDEPTNHLDLEAIIALGEALFKFDGALICVSHDRELIDAYANRIIELVPSPKGASIIDFKGSYEEYLASKK | not soluble |
| MGSDKIHHHHHHIFSSCTDDFEKLNTSNIQVDPADLPFAAQCTEPMTYCYPPQQNMFQFWTNLTIDLYGGYFMTPNGNFTNGDMGENRGHSGGMYENYYLHIFNNTRRIIAQCDASGERGLSGVMRIVQAYGTLMTTDAYGPIPYSSILSGENEVYFEFDSQKDLYKAMLEDLSTAITDISAMGADEIAKLKSFDCWCNGDKDLWVKIANTMKLRMALRLSKRETEAGNAGMNLKAIATEAAQNTLATVNKDILIDKSLENEMWLMFNWGDCGFNANLVTIMSGTKDPRQPLYMTLNTGDIKNEAGTTTVAANSQYLGIRFASGLPAKPNSWGNFSGWIQGNNGSSYSMPLPIMKAAEAYFLLAEAKLRWDIGSESVKNLYENGIRVSMTNELAYRGAYAGIKEYPEGAVDAYINGTSTQIDYTDPIKAELSTPAVNKLSVKWDESASNEEKLERIITQKWLALFPLSTEGWAEQRRTGYPRFFPAFVNESNGAVNTEEGVRRVIYSSQAYDANAKGVEGGIKLLDEENSSKFGISGDKGGTHLWWDNADKGNF | not soluble |
| MSLVETPKCTCGNHGVMNKKEKIIFACSGASNVGELSNAAAVRLTKEGFGNKACTASLAIKTPSVMERVENAGEIVVIDGCPVSCAKRIADNSGVKVDQYIIITELGINKISDMDILDEDITKTVSAVKDGKSVCLDRKRENHKGSGCNCGCESKEGHHHHHH | not soluble |
| MKLLKKPAGLKKRKVISKRIKIEKKPSSEDEGSSDEEVPKLDGEGSLDGSEDEDDGTVTVEKGGVKKHKLDLEKLKQSDPEFFKFLQQEDADLLNMEDDGDDDEDDDEDDEDEEEEESDDDEDDEEDDDKTKIKKIRKPKIKSDNSGRLIVDSNVYSYLQQVLVLDDETSTPTNPSDVRMAVDVFVACVARVGADIEAPKYVINEQSIFEAVVRMCFQAMPDILKRLLKAKPEGDKVLFSKTAIKKYQTYVRTYLHAMIVFLNEVQTTEVLIATIKAMTRLVDLYAHFSRMSKLLIKAVVRIWSRKTLECRLPAFVCMNLLVKNYPQHFVPLYKTAYVAFVANSKIVTNETWPLLQFMHRTFAELTILNPEQAYKYAFVYIRQTAVHLRNAMISKGRKDLIFSIYNWQMMQCMYMWVRVIAKAHSVNGAEQIGELVYPLIQVIVGIFKLCNAPTFLPLRLHCCQLLIQLQASCTNYIPILQVSCDCLEELARELKSKPKPVKGAVKLPDIECTLKCSSQFSDLPQWRKVISEHVFRTMMQSAHLLASQAAFPDVVLPINHRISAILETMKNGDHAHLFRGFQTKLKEHSRFVLDVLARKSVDINDEMQVRAVRFDLNNHDSPIKTFYRQWEKVWKMKERSAVENSKKDDKKKKKEEEAAAAKKRKPNETVEDEDDVKPEVSKAKRKRIKIGAAAKKADASVPDQFADMSMWSDED | soluble |
| MAPAEILNGKEISAQIRARLKNQVTQLKEQVPGFTPRLAILQVGNRDDSNLYINVKLKAAEEIGIKATHIKLPRTTTESEVMKYITSLNEDSTVHGFLVQLPLDSENSINTEEVINAIAPEKDVDGLTSINAGRLARGDLNDCFIPCTPKGCLELIKETGVPIAGRHAVVVGRSKIVGAPMHDLLLWNNATVTTCHSKTAHLDEEVNKGDILVVATGQPEMVKGEWIKPGAIVIDCGINYVPDDKKPNGRKVVGDVAYDEAKERASFITPVPGGVGPMTVAMLMQSTVESAKRFLEKFKPGKWMIQ | soluble |
| MSRVPYGYEIIQLLEQLAPKQLAMEGDRIGLQIGTLNKPVKKVMIALDVLEDVVVEAIDQQVDLIIAHHPPLYRPLKQLLTDDGHGRMIAACIKHDIAVYAAHTNLDVADGGLNDWLAEALGLNDTAVLVPTYTEPLKKLVVYVPVTHAEVVRKALGDAGAGHIGRYSHCTFNSRGVGTFLPHEGARPFIGEQGRLEEVEEVRIETIVPASLEREAIQAMLAVHPYEEVAYDIYPLDNEGRRFGLGRIGRLPQPVTLGAFAEQVKTAFSVPAVRVVGRLDDLVQTVAVLGGDGNKFVAAAASAGADVYVTGDVYYHTAHDAQALGLHIIDPGHNVEKIMKEGVARYLITELSKRQWEAEVVASSVHTDPFQFV | not soluble |
